Results reported in patent US20200179533A1.

Legend:
[1] = molecular target: PiT-2-HA (human) (UniProt Q08357); test: cell-based or functional assay
[2] = molecular target: PiT-2 receptor (human receptor gene PiT-2, SLC20A2) (human) (UniProt Q08357); test: cell-based or functional assay

Amphotropic Envelope gene product included in the Reximmune-C1 and 2 retroviral vector
EGFP+ cells (%) (transduction efficiency, PiT-2-HA-HCT-15) [1]: 14.9% | EGFP+ cells (%) (transduction efficiency, PiT-2-CHO-K1) [2]: 34% | EGFP+ cells (%) (transduction efficiency, PiT-2-MIA-PaCa-2) [2]: 78.6% | EGFP+ cells (%) (transduction efficiency, PiT-2-RKO) [2]: 43.1%
